Reference: paper PMC7615752, “The histone chaperone SPT2 regulates chromatin structure and function in Metazoa” (Nature structural & molecular biology, 2023)

Biological target: T1, recombinant histone H3.1–H4 tetramer (NEB, M2509S) (UniProt P68431 1-136; P62805 1-103)
T1 construct: histone H3.1 of the recombinant H3.1–H4 tetramer; histone H4 of the recombinant H3.1–H4 tetramer; As I recall the NEB product is the human tetramer; also called H3–H4; histone H3–H4; source: bought: NEB, M2509S (recombinant); copies: 2 + 2
Test: pull-down; 20 pmol recombinant H3.1–H4 tetramer covalently coupled to NHS-activated magnetic beads; 5 pmol full-length SPT2 in 20 mM Tris–HCl pH 8.0, 500 mM NaCl, 0.1% Triton X-100, 0.1 mM TCEP, 1.5 h at 4 °C; washes with 700 or 800 mM NaCl
Conditions: both partners purified

B1: HsSPT2, full-length (human SPT2), His6-tagged (natural protein)
chain: MDFREILMIASKGQGVNNVPKRYSLAVGPPKKDPKVKGVQSAAVQAFLKRKEEELRRKALEEKRRKEELVKKRIELKHDKKARAMAKRTKDNFHGYNGIPIEEKSKKRQATESHTSQGTDREYEMEEENEFLEYNHAESEQEYEEEQEPPKVESKPKVPLKSAPPPMNFTDLLRLAEKKQFEPVEIKVVKKSEERPMTAEELREREFLERKHRRKKLETDGKLPPTVSKKAPSQKESVGTKLSKGSGDRHPSSKGMPLPHAEKKSRPSMANEKHLALSSSKSMPGERIKAGSGNSSQPSLREGHDKPVFNGAGKPHSSTSSPSVPKTSASRTQKSAVEHKAKKSLSHPSHSRPGPMVTPHNKAKSPGVRQPGSSSSSAPGQPSTGVARPTVSSGPVPRRQNGSSSSGPERSISGSKKPTNDSNPSRRTVSGTCGPGQPASSSGGPGRPISGSVSSARPLGSSRGPGRPVSSPHELRRPVSGLGPPGRSVSGPGRSISGSIPAGRTVSNSVPGRPVSSLGPGQTVSSSGPTIKPKCTVVSETISSKNIISRSSNGQMNGMKPPLSGYRAAQGPQRLPFPTGYKRQREYEEEDDDDDEYDSEMEDFIEDEGEPQEEISKHIREIFGYDRKKYKDESDYALRYMESSWKEQQKEEAKSLRLGMQEDLEEMRREEEEMQRRRAKKLKRR
notes: human SPT2 (gene SPTY2D1), full length; source: E. coli Rosetta 2(DE3) pLysS BL21, purified (NiNTA, Flag M2 beads, Ulp1 cleavage); not shown: 2xFlag-SUMO, N-terminal, cleaved; His6, C-terminal, kept
binding result: binds
